From US20060177894A1

Tests used:
[1] = target: rat lutropin receptor (LHR) (rat) (UniProt P16235); test: inhibition of 125I-hCG binding to CHO cells with rat LHR; from IC50; acid-stable hCGβ-S138C analog
[2] = target: rat lutropin receptor (LHR) (rat) (UniProt P16235); test: cell-based or functional assay
[3] = target: rat lutropin receptor (LHR) (rat) (UniProt P16235); test: receptor binding assay

Sequence of rat lutropin receptor (LHR) (rat) (P16235 27-700): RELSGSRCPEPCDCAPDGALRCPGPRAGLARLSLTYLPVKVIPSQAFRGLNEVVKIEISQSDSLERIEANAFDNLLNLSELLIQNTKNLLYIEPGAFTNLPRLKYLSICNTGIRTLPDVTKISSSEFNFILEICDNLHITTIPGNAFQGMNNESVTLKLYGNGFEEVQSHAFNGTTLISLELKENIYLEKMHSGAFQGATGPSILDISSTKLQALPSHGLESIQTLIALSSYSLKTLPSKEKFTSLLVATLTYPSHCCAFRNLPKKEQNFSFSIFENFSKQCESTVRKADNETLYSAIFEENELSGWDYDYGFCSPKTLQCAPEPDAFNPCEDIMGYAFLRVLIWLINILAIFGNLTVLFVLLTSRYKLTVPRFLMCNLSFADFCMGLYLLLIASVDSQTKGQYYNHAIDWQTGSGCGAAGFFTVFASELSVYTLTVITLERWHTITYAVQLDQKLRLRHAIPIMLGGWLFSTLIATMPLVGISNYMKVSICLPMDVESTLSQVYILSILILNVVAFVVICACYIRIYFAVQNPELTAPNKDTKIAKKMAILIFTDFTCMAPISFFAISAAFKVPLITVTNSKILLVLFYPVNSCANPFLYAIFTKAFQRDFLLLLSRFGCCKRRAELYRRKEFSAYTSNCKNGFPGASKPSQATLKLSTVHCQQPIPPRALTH

Substance | Receptor-Binding potency (percent hCG) [1] | Signal transduction potency (cAMP accumulation), acid-stable analog [2] | signaling assays [2] | activity relative to hCG [3]
αT86C + hCGβ-S138C (from UniProt P01215 25-116; P0DN86 21-165) (ligand) | 2.2 % of hCG | 0.18 % of hCG |  | 
αY88C + hCGβ-S138C (from UniProt P01215 25-116; P0DN86 21-165) (ligand) | 0.05 % of hCG | 0.12 % of hCG |  | 
analog containing the entire carboxyterminal residues of the hCG β-subunit attached to the α-subunit (from UniProt P01215 25-116) (ligand) |  |  | 50 % of hCG | > 50 % of hCG
